Data: patent publication US20030087394, “Insulin related transcription factor and uses thereof” (published 2003)

Target: RIPE3b1 47-kDa protein (mMafA), affinity purified and SDS-PAGE eluted (UniProt A0A1U7RCQ9 A0A1U7RCQ9:1-361)
Assay: pulldown; streptavidin agarose affinity purification
Details: tags: from HIT T-15 nuclear extract; label: 5' biotin top strand
Description: This HP fraction contained about 85% of the recovered RIPE3b 1 factor with a 2.5-fold purification. The RIPE3b binding factor was then affinity purified from the HP fraction using a 5′ biotinylated RIPE3b oligonucleotide and streptavidin agarose. The purified fractions were analyzed for binding to a rat insulin II-139 to -101 bp probe by EMSA [FIG. 3, (24)]. The −139 to −101 bp probe contains the RIPE3b and overlapping A2 elements. Five distinct factors (RIPE3b1, RIPE3b2 and three A2 specific complexes) can bind the −139 to −101 bp probe. Thus the −139 to −101 bp probe serves as a good indicator of the purification process. The RIPE3b1 binding activity was eluted in two fractions and was the predominant DNA binding activity in these fractions. RIPE3b1 binding activity was purified 95-fold as compared to the HP fraction […]. The purified fraction was next analyzed on a 10% SDS-PAGE gel along with the starting HIT T-15 nuclear extract and HP fraction. […] The regions corresponding to the individual protein bands were cut; the proteins were then eluted and analyzed for the RIPE3b1 binding activity. […]

RIPE3b1 47-kDa protein (mMafA), affinity purified and SDS-PAGE eluted, sequence (A0A1U7RCQ9 entry or part of it): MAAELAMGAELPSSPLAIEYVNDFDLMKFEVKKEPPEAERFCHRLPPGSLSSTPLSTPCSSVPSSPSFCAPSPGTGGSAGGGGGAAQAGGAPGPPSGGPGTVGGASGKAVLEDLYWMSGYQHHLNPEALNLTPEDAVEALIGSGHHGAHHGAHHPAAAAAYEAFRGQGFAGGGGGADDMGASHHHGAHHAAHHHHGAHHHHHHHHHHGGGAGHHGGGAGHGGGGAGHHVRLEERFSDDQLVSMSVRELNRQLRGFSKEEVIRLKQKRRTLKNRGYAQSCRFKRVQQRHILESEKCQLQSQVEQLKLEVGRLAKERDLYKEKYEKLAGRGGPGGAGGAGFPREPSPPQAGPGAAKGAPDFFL

B1: biotinylated RIPE3b (-126 to -101) dimer (dsDNA)
DNA 1: TGACTGGAAACTGCAGCTTCAGCCCCTCTGGAAACTGCAGCTTCAGCCCCAC
DNA 2: GTGGGGCTGAAGCTGCAGTTTCCAGAGGGGCTGAAGCTGCAGTTTCCAGTCA
  binding result: binds
